According to paper PMC3734830 (Cell Death & Disease, 2013):

Molecular target: cytochrome c (human (endogenous in SK-N-BE), UniProt P99999 1-105)
Experiment: co-IP

Sequence of cytochrome c (P99999 whole entry): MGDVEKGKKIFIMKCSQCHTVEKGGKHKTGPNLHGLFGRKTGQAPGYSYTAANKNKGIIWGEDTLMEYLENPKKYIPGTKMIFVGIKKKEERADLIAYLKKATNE

B1: Neuroglobin (natural protein, human (endogenous in SK-N-BE), UniProt Q9NPG2 1-151, looked up)
chain: MERPEPELIRQSWRAVSRSPLEHGTVLFARLFALEPDLLPLFQYNCRQFSSPEDCLSSPEFLDHIRKVMLVIDAAVTNVEDLSSLEEYLASLGRKHRAVGVKLSSFSTVGESLLYMLEKCLGPAFTPATRAAWSQLYGAVVQAMSRGWDGE
In the case of B1, the “fold NGB–cytochrome c association in mitochondria after E2” value is reported as roughly 3.3 fold.
